Experimental data reported in publication PMC5003112 (Nature chemical biology, 2016).
Residue numbers refer to the chain shown, from its start. Names and notes keep the numbering of the source.

B1: Escherichia coli NudC (crystallization construct) (enzyme, E. coli)
chain: MDRIIEKLDHGWWVVSHEQKLWLPKGELPYGEAANFDLVGQRALQIGEWQGEPVWLVQQQRRHDMGSVRQVIDLDVGLFQLAGRGVQLAEFYRSHKYCGYCGHEMYPSKTEWAMLCSHCRERYYPQIAPCIIVAIRRDDSILLAQHTRHRNGVHTVLAGFVEVGETLEQAVAREVMEESGIKVKNLRYVTSQPWPFPQSLMTAFMAEYDSGDIVIDPKELLEANWYRYDDLPLLPPPGTVARRLIEDTVAMCRAEYE
B2: E. coli NudC Y188A (enzyme, E. coli K-12, UniProt P32664 1-257, looked up)
chain: B1 chain with Y188A
B3: E. coli NudC Y188Q (enzyme, E. coli K-12, UniProt P32664 1-257, looked up)
chain: B1 chain with Y188Q

Key:
crystal structure = target: the molecule itself; assay: crystal structure
SEC = target: the molecule itself; assay: SEC

Row | Protein | stoichiometry N (crystal structure) | binding result (SEC)
1 | B1 | 2 | 
2 | B2 |  | binds
3 | B3 |  | binds
